Substitutions are numbered along the chain they refer to. Where two headings read alike, the source gives them in different places.
Key:
human TIM-3 on cells [1] = molecular target: T1, human TIM-3 on cells (human, UniProt Q8TDQ0 22-301); assay: cell-based or functional assay
human TIM-3 on cells [2] = molecular target: T1, human TIM-3 on cells; assay: cell-based or functional assay; remark: listed apart in the source
cynomolgus Tim3 (ELISA) [3] = molecular target: T2, cynomolgus Tim3 (ELISA) (cynomolgus, UniProt A0A2K5U3G7 22-193); assay: ELISA, cyno Tim3
T2 construct: also called Biochem Cyno; cyno TIM3
T2 sequence: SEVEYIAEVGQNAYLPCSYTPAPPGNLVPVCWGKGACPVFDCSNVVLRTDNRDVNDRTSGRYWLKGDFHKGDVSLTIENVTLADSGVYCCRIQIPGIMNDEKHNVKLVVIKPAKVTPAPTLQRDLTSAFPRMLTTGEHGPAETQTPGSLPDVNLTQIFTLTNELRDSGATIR

Tim3-ECD-His-Biotin [4] = molecular target: T3, Tim3-ECD-His-Biotin (human, UniProt Q8TDQ0 22-202); assay: ELISA, human Tim3
T3 construct: also called human Tim3 (ELISA); Biochem Human

human TIM-3 on cells [5] = molecular target: T1, human TIM-3 on cells; assay: cell ELISA, CHO-Tim3
cynomolgus Tim3 (ELISA) [6] = molecular target: T2, cynomolgus Tim3 (ELISA); assay: ELISA, cyno Tim3; EC50 relative to the sample's max value
Tim3-ECD-His-Biotin [7] = molecular target: T3, Tim3-ECD-His-Biotin; assay: ELISA, human Tim3; EC50 relative to the sample's max value
human TIM-3 on cells [8] = molecular target: T1, human TIM-3 on cells; assay: cell ELISA, CHO-Tim3; EC50 relative to the sample's max value
[9] = molecular target: T4, human FolR2 on transiently transfected HEK cells (human, UniProt P14207 17-230); assay: flow cytometry on HEK cells transiently transfected with human FolR2, anti-human secondary antibody; concentration not given
[10] = molecular target: T5, murine FolR1 ECD-AcTev-Fcknob-Avitag + Fc hole, biotinylated monomeric Fc fusion (murine, UniProt P0DOX5 223-449 = IgG part); assay: SPR ProteOn, Fab analyte
T5 construct: also called muFolR1; murine FolR1-Fc
Protocol: Immobilization of antigens (ligand): Recombinant antigens were diluted with PBST (10 mM phosphate, 150 mM sodium chloride pH 7.4, 0.005% Tween 20) to 10 μg/ml, then injected at 30 μl/minute in vertical orientation. Injection of analytes: For ‘one-shot kinetics’ measurements, injection direction was changed to horizontal orientation, two-fold dilution series of purified Fab (varying concentration ranges) were injected simultaneously along separate channels 1-5, with association times of 150 or 200 s, and dissociation times of 200 or 600 s, respectively. Buffer (PBST) was injected along the sixth channel to provide an “in-line” blank for referencing. Association rate constants (kₒₙ) and dissociation rate constants (koff) were calculated using a simple one-to-one Langmuir binding model in ProteOn Manager v3.1 software by simultaneously fitting the association and dissociation sensorgrams. The equilibrium dissociation constant (KD) was calculated as the ratio koff/kₒₙ.

[11] = molecular target: T6, human FolR1 ECD-AcTev-Fcknob-Avi tag + Fc hole, biotinylated monomeric Fc fusion (human, UniProt P0DOX5 223-449 = IgG part); assay: SPR ProteOn, Fab analyte;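 further: recombinant antigens immobilized, purified Fab two-fold dilutions injected in parallel channels, 200 s association and 600 s dissociation, buffer-only channel as in-line reference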
T6 construct: also called huFolR1; huFolR1-Fc
Protocol: (§1) Immobilization of antigens (ligand): Recombinant antigens were diluted with PBST (10 mM phosphate, 150 mM sodium chloride pH 7.4, 0.005% Tween 20) to 10 μg/ml, then injected at 30 μl/minute in vertical orientation.
(§2) Injection of analytes: For ‘one-shot kinetics’ measurements, injection direction was changed to horizontal orientation, two-fold dilution series of purified Fab (varying concentration ranges) were injected simultaneously along separate channels 1-5, with association times of 200 s, and dissociation times of 600 s. Buffer (PBST) was injected along the sixth channel to provide an “in-line” blank for referencing. Association rate constants (kₒₙ) and dissociation rate constants (koff) were calculated using a simple one-to-one Langmuir binding model in ProteOn Manager v3.1 software by simultaneously fitting the association and dissociation sensorgrams. The equilibrium dissociation constant (KD) was calculated as the ratio koff/kₒₙ.

[12] = molecular target: T7, cynomolgus FolR1 ECD-AcTev-Fcknob-Avi tag + Fc hole, biotinylated monomeric Fc fusion (cynomolgus, UniProt P0DOX5 223-449 = IgG part); assay: SPR ProteOn, Fab analyte;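 further: recombinant antigens immobilized, purified Fab two-fold dilutions injected in parallel channels, 200 s association and 600 s dissociation, buffer-only channel as in-line reference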
T7 construct: also called cyFolR1; cyno FolR1-Fc
Protocol: as §1, §2

[13] = molecular target: T5, murine FolR1 ECD-AcTev-Fcknob-Avitag + …; assay: SPR ProteOn, Fab analyte; remark: listed apart in the source;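 further: recombinant antigens immobilized, purified Fab two-fold dilutions injected in parallel channels, 200 s association and 600 s dissociation, buffer-only channel as in-line reference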
Protocol: as §1, §2

[14] = molecular target: T8, human FolR2 ECD-AcTev-Fcknob-Avi tag + Fc hole, biotinylated monomeric Fc fusion (human, UniProt P0DOX5 223-449 = IgG part); assay: SPR ProteOn, Fab analyte;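 further: recombinant antigens immobilized, purified Fab two-fold dilutions injected in parallel channels, 200 s association and 600 s dissociation, buffer-only channel as in-line reference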
T8 construct: also called huFolR2; FolR2-Fc
Protocol: as §1, §2

[15] = molecular target: T9, human FolR3 ECD-AcTev-Fcknob-Avi tag + Fc hole, biotinylated monomeric Fc fusion (human, UniProt P0DOX5 223-449 = IgG part); assay: SPR ProteOn, Fab analyte
T9 construct: also called huFolR3; FolR3-Fc
Protocol: as §1, §2

[16] = molecular target: T5, murine FolR1 ECD-AcTev-Fcknob-Avitag + …; assay: SPR, IgG single injection
[17] = molecular target: T8, human FolR2 ECD-AcTev-Fcknob-Avi tag + …; assay: SPR, IgG single injection
[18] = molecular target: T9, human FolR3 ECD-AcTev-Fcknob-Avi tag + …; assay: SPR, IgG single injection
[19] = molecular target: T4, human FolR2 on transiently transfected …; assay: flow cytometry on HEK cells transiently transfected with human FolR2, anti-human secondary antibody; concentration not given; remark: listed apart in the source

T4 sequence (P14207 17-230 limits assumed): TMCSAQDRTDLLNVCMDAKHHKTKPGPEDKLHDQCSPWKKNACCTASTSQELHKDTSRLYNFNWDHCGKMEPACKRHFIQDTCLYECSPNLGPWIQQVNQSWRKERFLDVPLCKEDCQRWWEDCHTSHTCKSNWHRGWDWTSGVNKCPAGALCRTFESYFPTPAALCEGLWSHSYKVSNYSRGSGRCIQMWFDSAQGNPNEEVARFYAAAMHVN

B1: Tim3_0016 Fab-PE24 construct (Fab, V domains shown)
VH: QVTLKESGPGILQPSQTLRLTCSFSGFSLSTSGMSVGWIRQPSGKGLEWLAHIWLNDDVFFNPALKSRLTISKDTSNNQVFLQIASVVTADTATYYCVRANGYLYALDYWGQGTSVTVSS
VL: QIVLTQSPAIMSASPGQKVTITCSASSSVNYTQWYQQKLGSSPKLWIYDAFKLAPGVPARFSGSGTGTSYSLTISSMEAEDAASYFCHQWSSYPWTFGGGTKLEIK
- IC50 cytotoxicity, CMK (human TIM-3 on cells [1]): 225 nM
- IC50 cytotoxicity, Karpas-299 (human TIM-3 on cells [1]): 4 nM
- IC50 cytotoxicity, MOLM-13 (human TIM-3 on cells [1]): 459 nM
- IC50 cytotoxicity, TF-1 (human TIM-3 on cells [1]): 534 nM
- IC50 cytotoxicity, primary AML CD34+ PB0135 (human TIM-3 on cells [2]): > 691 nM
- IC50 cytotoxicity, primary AML CD34+ PB0136 (human TIM-3 on cells [2]): > 691 nM

B2: aTim3 0018MutNQ (antibody, V domains shown)
VH: B1 VH with R19S, S67R, T114I
VL: B1 VL with N30Q
notes: also called aT3m3 0018MutNQ
- inflexion point (cynomolgus Tim3 (ELISA) [3]): 10.8 ng/mL
- inflexion point (Tim3-ECD-His-Biotin [4]): 10.8 ng/mL
- inflexion point (human TIM-3 on cells [5]): 12.8 ng/mL
- EC50 (cynomolgus Tim3 (ELISA) [6]): 13.2 ng/mL
- EC50 (Tim3-ECD-His-Biotin [7]): 12 ng/mL
- EC50 (human TIM-3 on cells [8]): 13.4 ng/mL

B3: aTim3 0016 MutNQ (antibody, V domains shown)
VH: B1 VH
VL: B1 VL with N30Q
- inflexion point (cynomolgus Tim3 (ELISA) [3]): 5.7 ng/mL
- inflexion point (Tim3-ECD-His-Biotin [4]): 5.7 ng/mL
- inflexion point (human TIM-3 on cells [5]): 5.4 ng/mL
- EC50 (cynomolgus Tim3 (ELISA) [6]): 8.3 ng/mL
- EC50 (Tim3-ECD-His-Biotin [7]): 7.6 ng/mL
- EC50 (human TIM-3 on cells [8]): 6.8 ng/mL

B4: aTim3 0016MutNS (antibody, V domains shown)
VH: B1 VH
VL: B1 VL with N30S
- inflexion point (cynomolgus Tim3 (ELISA) [3]): 5.5 ng/mL
- inflexion point (Tim3-ECD-His-Biotin [4]): 6.5 ng/mL
- inflexion point (human TIM-3 on cells [5]): 8.5 ng/mL
- EC50 (cynomolgus Tim3 (ELISA) [6]): 9.7 ng/mL
- EC50 (Tim3-ECD-His-Biotin [7]): 8.5 ng/mL
- EC50 (human TIM-3 on cells [8]): 9.1 ng/mL

B5: aTim3 0018MutNS (antibody, V domains shown)
VH: B1 VH with R19S, S67R, T114I
VL: B1 VL with N30S
notes: also called aT3m3 0018MutNS
- inflexion point (cynomolgus Tim3 (ELISA) [3]): 6.5 ng/mL
- inflexion point (Tim3-ECD-His-Biotin [4]): 6.5 ng/mL
- inflexion point (human TIM-3 on cells [5]): 11.1 ng/mL
- EC50 (cynomolgus Tim3 (ELISA) [6]): 11.9 ng/mL
- EC50 (Tim3-ECD-His-Biotin [7]): 10.3 ng/mL
- EC50 (human TIM-3 on cells [8]): 11.2 ng/mL

B6: 11F8 IgG (antibody, V domains shown)
VH: QVQLVQSGAEVKKPGSSVKVSCKASGGTFSSYAISWVRQAPGQGLEWMGGIIPIFGTANYAQKFQGRVTITADKSTSTAYMELSSLRSEDTAVYYCARAVFYRAWYSFDYWGQGTTVTVSS
VL: DIQMTQSPSTLSASVGDRVTITCRASQSISSWLAWYQQKPGKAPKLLIYDASSLESGVPSRFSGSGSGTEFTLTISSLQPDDFATYYCQQYTSPPPTFGQGTKVEIK
notes: human IgG1
- binding result [9]: binds

B7: 11F8 Fab (Fab, V domains shown)
VH: B6 VH
VL: B6 VL
- Kd [10]: 1200 nM

B8: 15B6 Fab (Fab, V domains shown)
VH: QVQLVQSGAEVKKPGASVKVSCKASGYTFTSYYMHWVRQAPGQGLEWMGIINPSGGSTSYAQKFQGRVTMTRDTSTSTVYMELSSLRSEDTAVYYCARNYYIGIVPFDYWGQGTLVTVSS
VL: QAVVTQEPSLTVSPGGTVTLTCGSSTGAVTTSNYANWVQEKPGQAFRGLIGGTNKRAPGTPARFSGSLLGGKAALTLSGAQPEDEAEYYCALWYSNLWVFGGGTKLTVL
- Kd [11]: 19.1 nM
- Kd [12]: 13.9 nM
- binding result [13]: no binding
- binding result [14]: no binding
- binding result [15]: no binding

B9: 21A5 Fab (Fab, V domains shown)
VH: not shown
VL: B8 VL
- binding result [13]: no binding
- binding result [14]: no binding

B10: 16D5 IgG (antibody, V domains shown)
VH: not shown
VL: B8 VL
notes: human IgG1
- binding result [16]: no binding (tested: 500 nM)
- binding result [17]: no binding (tested: 500 nM)
- binding result [18]: no binding (tested: 500 nM)
- binding result [19]: no binding

B11: 16D5 Fab (Fab, V domains shown)
VH: not shown
VL: B8 VL
- binding result [13]: no binding
- binding result [14]: no binding
- binding result [15]: no binding

B12: 16F12 Fab (Fab, V domains shown)
VH: B8 VH with Y100F, Y101T, I102V, G103L, I104R
VL: B8 VL
- Kd [11]: 68 nM
- Kd [12]: 90.9 nM
- binding result [13]: no binding
- binding result [14]: no binding
- binding result [15]: no binding

B13: 21G8 Fab (Fab, V domains shown)
VH: not shown
VL: B8 VL
- binding result [13]: no binding

B14: Tim3_0022 Fab-PE24 construct (Fab, V domains shown)
VH: EVQLQESGPSLVKPSQTLSLTCSVTGDSIASAYWNWIRKFPGNKLEYMGYINYSGSTYYNPSLKSRISITRDTSQNQYYLQLNSVTTEDTATYYCVTGDYFDYWGRGTTLTVSS
VL: DIQMTQSPSSLSAYLGGKVTITCKARQDVRKNIGWYQHKPGKGPRLLIWYTSTLQSGIPSRFSGSGSGRDYSFNINNLEPEDIATYYCLQYDNLPFTFGTGTKLEIR
- IC50 cytotoxicity, CMK (human TIM-3 on cells [1]): 255 nM
- IC50 cytotoxicity, Karpas-299 (human TIM-3 on cells [1]): 10 nM
- IC50 cytotoxicity, MOLM-13 (human TIM-3 on cells [1]): 579 nM
- IC50 cytotoxicity, TF-1 (human TIM-3 on cells [1]): 299 nM
- IC50 cytotoxicity, primary AML CD34+ PB0135 (human TIM-3 on cells [2]): > 691 nM
- IC50 cytotoxicity, primary AML CD34+ PB0136 (human TIM-3 on cells [2]): > 691 nM

B15: 5D9 IgG (antibody, V domains shown)
VH: QVQLVQSGAEVKKPGASVKVSCKASGYTFTSYYMHWVRQAPGQGLEWMGIINPSGGSTSYAQKFQGRVTMTRDTSTSTVYMELSSLRSEDTAVYYCARSYIDMDYWGQGTLVTVSS
VL: EIVLTQSPGTLSLSPGERATLSCRASQSVSSSYLAWYQQKPGQAPRLLIYGASSRATGIPDRFSGSGSGTDFTLTISRLEPEDFAVYYCQQDNWSPTFGQGTKVEIK
notes: human IgG1
- binding result [16]: no binding (tested: 500 nM)
- binding result [9]: binds

B16: 5D9 Fab (Fab, V domains shown)
VH: B15 VH
VL: B15 VL
- binding result [10]: no binding

B17: 6B6 Fab (Fab, V domains shown)
VH: B15 VH with I101V
VL: B15 VL with N93I
- binding result [10]: no binding
